Assay [1] deals with Xenopus cyclase-associated protein 1 (Xenopus laevis (endogenous in oocytes)). The assay can be described thus: SEC-MALS + AUC. In general terms: Size exclusion chromatography separates by hydrodynamic size, large species first.
Assay [2] deals with actin from Xenopus laevis oocytes (Xenopus laevis (endogenous in oocytes)) (UniProt O93400). The assay is described as follows: SEC-MALS + AUC.

As to “Xenopus cyclase-associated protein 1 (natural protein)”, the stoichiometry N (XCAP1 molecules in the complex) in assay [1] came out at 4. The stoichiometry N (XCAP1 per actin (4:4)) in assay [2] was determined as 1.

The values are drawn from article doi:10.1101/2020.10.02.323899.
